Data reported in patent US8796227B2, “Peptides for inhibiting chemokine binding to chemokine receptors” (Biokine Therapeutics Ltd., priority 2002, dated 2014).

Key:
Experiment in all cases: Biovalidation: laminar flow assay, chemokine and VCAM-1 activated adhesion of T cells
Assay type in all cases: cell-based
SDF-1α = target: T1, SDF-1α (Homo sapiens, UniProt P48061)
T1 construct: purchased PeproTech, Inc. 300-28A
Method: (§1) 50 ml blood was added to 10 ml Dextran (Dextran T-500 6% w/v) in PBS (phosphate buffer saline), and 7 ml citrate buffer (25 g citrate, 8 g citric acid in 500 ml PBS). The solution was incubated for 30 min at 25° C. 10 ml Ficoll 1077 (Sigma) was added to the bottom of the tube. The tube was then centrifuged at 2,000 rpm for 30 min, at 18° C., (with the brake mode of the centrifuge off). The interphase was collected and washed twice with 8 ml PBS-5% FCS (fetal calf serum), followed by centrifugation at 1,400 rpm, for 5 min, at 18° C. The cells were re-suspended in PBS-5% FCS at a concentration less than 10^8/ml. 2 ml of the cell solution were applied and incubated for 45 min at 25° C. on a Perspex Nylon wool column, which was pre-soaked with PBS-5% FCS. Each column was washed with 8 ml PBS-5% FCS and the cells (T-cells and erythrocytes) were eluted by 50 ml of 5 mM EDTA in PBS. A red pellet was obtained by centrifugation at 1,400 rpm, at 4° C., for 5 min, with the brake on. In order to perform lysis of the erythrocytes, the red pellet was re-suspended in 5 ml lysis-buffer (155 mM NH4Cl, 10 mM KHCO3, 0.1 mM EDTA, X0.1PBS) for 4 min, followed by immediate addition of 50 ml of PBS-EDTA.
(§2) Following centrifugation at 1,400 rpm, at 4° C., for 5 min with brake on, the pellet was washed again with 50 ml PBS-EDTA and re-centrifuged under the same conditions. A white pellet was obtained and re-suspended in RPMI/10% FCS/L-glutamine/sodium pyruvate/antibiotics at a concentration of 3^X10^6 cells/ml. The cells were incubated for 2 h at 37° C., followed by collection of the non-adherent cells. The cells were ready for use in experiments after overnight incubation at 37° C. […]
Laminar flow assays were performed as follows. […] The number of adherent cells resisting detachment by the elevated shear forces was determined after each interval by analysis of videotaped cell images, and was expressed as the percent of originally settled cells. […]

IL-8 = target: T2, IL-8 (Homo sapiens, UniProt P10145); set-up: key to Level of Antagonistic Effect / Level of Effect: + 20%; ++ 50%; +++ 100%; − No effect; settings: VCAM-1
T2 construct: human IL-8, (72 amino acids) (Cat. No. 200-08M); purchased PeproTech, Inc. 200-08M
T2 sequence (P10145 28-99): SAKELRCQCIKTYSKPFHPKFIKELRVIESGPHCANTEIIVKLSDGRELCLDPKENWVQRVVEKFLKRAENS

MIG = target: T3, MIG (Homo sapiens, UniProt Q07325); settings: T cell adhesion under flow, VCAM-1
T3 construct: purchased PeproTech, Inc. 300-26
T3 sequence (Q07325 23-125): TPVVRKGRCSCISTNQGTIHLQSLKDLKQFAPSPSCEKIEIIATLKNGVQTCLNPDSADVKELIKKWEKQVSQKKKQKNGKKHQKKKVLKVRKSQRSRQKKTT
Method: as §1, §2
Laminar flow assays were performed as follows. Polystyrene plates (B.D) were coated with soluble VCAM-1 at 10 μg/ml in the presence of 2 μg/ml HSA carrier. The plates were washed three times with PBS and blocked with HSA (20 μg/ml in PBS) for 2 hrs at room temperature. Alternatively, washed plates were coated with 10 μg/ml MIG chemokine in PBS for 30 min at room temperature, before being blocked with HSA. The plates were assembled as the lower wall of a parallel wall flow chamber and mounted on the stage of an inverted microscope. The peptide, as described previously, (10 μg/ml) was allowed to settle on the substrate coated chamber wall for 10 min, at 37° C. and then washed. T cells (5×10^6/ml, purity >98%) were suspended in binding buffer, perfused into the chamber and allowed to settle on the substrate coated chamber wall for 1 min, at 37° C. Flow was initiated and increased in 2 to 2.5 fold increments every 5 sec. generating controlled shear stresses on the wall. Cells were visualized in a 20× objective of an inverted phase-contrast Diaphot Microscope (Nikon, Japan) and photographed with a long integration LIS-700 CCD video camera (Applitech; Holon, Israel), connected to a video recorder (AG-6730 S-VHS, Panasonic, Japan). The number of adherent cells resisting detachment by the elevated shear forces was determined after each interval by analysis of videotaped cell images, and was expressed as the percent of originally settled cells. All adhesion experiments were performed at least three times on multiple test fields.

Eotaxin = target: T4, Eotaxin (Homo sapiens, UniProt P51671)
T4 construct: purchased PeproTech, Inc. 300-21

[1] = T cell adhesion under flow, VCAM-1

T1 sequence (P48061 22-89 limits assumed): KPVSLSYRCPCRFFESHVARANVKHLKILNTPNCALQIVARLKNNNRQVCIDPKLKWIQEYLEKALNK

Kind of Effect (SDF-1α; Chemokine checked SDF-1α): Antagonist | Level of Effect (SDF-1α; Chemokine checked SDF-1α, T cells, VCAM-1, peptide 10 μg/ml): + (+ 20%) | Blocking of the activity of SDF-1α (SDF-1α; [1]): about 20% | Level of Effect (IL-8; Chemokine checked IL-8, T cells, peptide 10 μg/ml): − | Abolishment of the activity of IL-8 (IL-8; T cell adhesion under flow): no effect | Reduction of the activity of MIG (MIG): no effect | Kind of Effect (Eotaxin; Chemokine checked EOTAXIN): Antagonist | Level of Effect (Eotaxin; Chemokine checked Eotaxin, T cells, VCAM-1, peptide 10 μg/ml): +++ (+++ 100%) | Blocking of the activity of Eotaxin (Eotaxin; [1]): 100%
Sequence: QIPQMRILHPYG [BKT-P23]
